What was measured:
[1] = biological target: T1, Human recombinant protein NCL (human, UniProt P19338 1-710); assay: co-IP; in vitro binding assay: recombinant proteins CITED2, PRMT5, NCL and P300 put together in a test tube, immunoprecipitated with the indicated antibodies, immunoblotted; conditions: both partners purified
T1 construct: Nucleolin, human, recombinant protein bought from Origene; No catalogue number, host, tag or limits are printed; also called nucleolin; source: bought: Origene

[2] = biological target: T2, Human recombinant protein PRMT5 (human, UniProt O14744 1-637); assay: as above; conditions: both partners purified
T2 construct: PRMT5, human, recombinant protein bought from Origene; No catalogue number, host, tag or limits are printed; source: bought: Origene
T2 sequence (O14744 whole entry): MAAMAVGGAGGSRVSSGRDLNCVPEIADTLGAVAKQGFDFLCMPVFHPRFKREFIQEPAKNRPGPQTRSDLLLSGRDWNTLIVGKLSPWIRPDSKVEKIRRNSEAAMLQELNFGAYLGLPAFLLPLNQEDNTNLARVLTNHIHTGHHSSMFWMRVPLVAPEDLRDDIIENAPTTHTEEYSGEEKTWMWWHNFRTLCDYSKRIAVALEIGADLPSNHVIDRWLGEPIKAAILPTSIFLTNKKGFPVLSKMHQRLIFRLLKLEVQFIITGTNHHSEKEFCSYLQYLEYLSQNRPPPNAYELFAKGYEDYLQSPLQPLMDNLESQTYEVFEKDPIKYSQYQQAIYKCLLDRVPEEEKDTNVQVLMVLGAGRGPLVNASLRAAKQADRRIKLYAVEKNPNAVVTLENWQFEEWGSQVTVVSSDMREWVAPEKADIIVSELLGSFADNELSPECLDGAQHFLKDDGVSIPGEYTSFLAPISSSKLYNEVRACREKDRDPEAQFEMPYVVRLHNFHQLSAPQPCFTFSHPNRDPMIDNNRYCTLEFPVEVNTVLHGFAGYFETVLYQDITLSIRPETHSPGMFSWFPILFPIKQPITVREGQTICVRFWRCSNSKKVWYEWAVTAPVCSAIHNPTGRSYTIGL

T1 sequence (P19338 whole entry): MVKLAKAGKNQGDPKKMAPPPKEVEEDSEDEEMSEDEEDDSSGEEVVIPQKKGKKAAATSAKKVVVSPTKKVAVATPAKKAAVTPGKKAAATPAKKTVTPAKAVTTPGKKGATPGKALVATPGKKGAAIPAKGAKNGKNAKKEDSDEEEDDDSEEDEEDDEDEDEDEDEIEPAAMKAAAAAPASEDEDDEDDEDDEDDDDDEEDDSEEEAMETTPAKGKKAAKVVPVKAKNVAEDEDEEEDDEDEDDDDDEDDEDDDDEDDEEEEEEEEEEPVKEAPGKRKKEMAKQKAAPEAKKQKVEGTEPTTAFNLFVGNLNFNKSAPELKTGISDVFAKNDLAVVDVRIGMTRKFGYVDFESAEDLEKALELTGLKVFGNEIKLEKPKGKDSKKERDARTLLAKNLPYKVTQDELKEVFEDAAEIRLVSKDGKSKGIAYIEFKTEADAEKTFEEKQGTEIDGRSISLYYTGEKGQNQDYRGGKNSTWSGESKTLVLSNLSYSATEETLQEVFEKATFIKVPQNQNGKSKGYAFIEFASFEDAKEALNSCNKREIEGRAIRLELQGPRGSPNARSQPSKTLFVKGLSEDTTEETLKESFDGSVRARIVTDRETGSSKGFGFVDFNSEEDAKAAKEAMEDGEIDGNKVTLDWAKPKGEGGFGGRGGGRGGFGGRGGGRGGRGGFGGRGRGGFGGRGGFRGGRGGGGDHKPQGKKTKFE

B1: Human recombinant protein CITED2 (natural protein, UniProt Q99967 1-270, looked up)
chain: MADHMMAMNHGRFPDGTNGLHHHPAHRMGMGQFPSPHHHQQQQPQHAFNALMGEHIHYGAGNMNATSGIRHAMGPGTVNGGHPPSALAPAARFNNSQFMGPPVASQGGSLPASMQLQKLNNQYFNHHPYPHNHYMPDLHPAAGHQMNGTNQHFRDCNPKHSGGSSTPGGSGGSSTPGGSGSSSGGGAGSSNSGGGSGSGNMPASVAHVPAAMLPPNVIDTDFIDEEVLMSLVIEMGLDRIKELPELWLGQNEFDFMTDFVCKQQPSRVSC
notes: CITED2, human, recombinant protein bought from Origene; No catalogue number, host, tag or limits are printed; source: bought: Origene
- binding result [1]: binds
- binding result [2]: binds
